Patent US20180360950A1 (published 2018)

T1: recombinant full-length DARC325 protein (UniProt Q16570 1-325)
T1 chain: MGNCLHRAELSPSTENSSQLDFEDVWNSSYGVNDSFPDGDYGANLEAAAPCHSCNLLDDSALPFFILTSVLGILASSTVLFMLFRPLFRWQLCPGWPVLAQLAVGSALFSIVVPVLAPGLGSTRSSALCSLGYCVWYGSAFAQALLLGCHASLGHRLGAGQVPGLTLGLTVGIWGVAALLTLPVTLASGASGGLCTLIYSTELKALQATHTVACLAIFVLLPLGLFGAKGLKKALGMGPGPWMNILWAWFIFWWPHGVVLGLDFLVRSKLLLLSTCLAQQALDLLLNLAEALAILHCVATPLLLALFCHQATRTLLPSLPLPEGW

B1: VAR2CSAVHH (VHH)
VHH: QVQLQESGGGLVQAGGSLRLSCAFSGSIFKMGWFRQAPGKEREFVAAIRWSGGSTYYADSVKGRFTISRDNAKNTVYLQMDSLKPEDTAVYYCAATWDLAGWNTVDEYDYWGQGTQVTVSS
B2: DARCVHH (VHH)
VHH: QVQLQESGGGSVQAGGSLRLSCAASGYAFSSYCMAWFRQVPGKEREGVASINSDGERRGYADSVKGRFTVSRDNAKNTVYLQMNSLKPEDTAIYYCAAKRVVGGRYCGGGVSSWGQGTQVTVSS
B3: DARCVHH-EBV P18F4 (VHH)
VHH: B2 VHH

What was measured:
[1] = target: recombinant full-length VAR2CSA (3D7-DBL1X-6ε) (Plasmodium falciparum (3D7)); assay: SPR
[2] = target: T1, recombinant full-length DARC325 protein; assay: SPR

Row | Binder | Kd [1] | Kd [2]
1 | B1 | 0.486 nM | –
2 | B2 | – | 0.09 nM
3 | B3 | – | 0.0565 nM
